B1: I217A: mutated TriA variant of SEQ ID NO: 2 (protein)
chain: MQTLSIQHGTLVTMDQYRRVLGDSWVHVQDGRIVALGVHAESVPPPADRVIDARGKVVLPGFINAHTHVNQILLRGGPSHGRQLYDWLFNVLYPGQKAMRPEDVAVAVRLYCAEAVRSGITTINDNADSAIYPGNIEAAMAVYGEVGVRVVYARMFFDRMDGRIQGYVDALKARSPQVELCSIMEETAVAKDRITALSDQYHGTAGGRISVWPAPAATPAVTVEGMRWAQAFARDRAVMWTLHMAESDHDERLHWMSPAEYMECYGLLDERLQVAHCVYFDRKDVRLLHRHNVKVASQVVSNAYLGSGVAPVPEMVERGMAVGIGTDDGNCNDSVNMIGDMKFMAHIHRAVHRDADVLTPEKILEMATIDGARSLGMDHEIGSIETGKRADLILLDLRHPQTTPHHHLAATIVFQAYGNEVDTVLIDGNVVMENRRLSFLPPERELAFLEEAQSRATAILQRANMVANPAWRSL
modifications: Pseudomonas
B2: I217S: mutated TriA variant of SEQ ID NO: 2 (protein)
chain: MQTLSIQHGTLVTMDQYRRVLGDSWVHVQDGRIVALGVHAESVPPPADRVIDARGKVVLPGFINAHTHVNQILLRGGPSHGRQLYDWLFNVLYPGQKAMRPEDVAVAVRLYCAEAVRSGITTINDNADSAIYPGNIEAAMAVYGEVGVRVVYARMFFDRMDGRIQGYVDALKARSPQVELCSIMEETAVAKDRITALSDQYHGTAGGRISVWPAPASTPAVTVEGMRWAQAFARDRAVMWTLHMAESDHDERLHWMSPAEYMECYGLLDERLQVAHCVYFDRKDVRLLHRHNVKVASQVVSNAYLGSGVAPVPEMVERGMAVGIGTDDGNCNDSVNMIGDMKFMAHIHRAVHRDADVLTPEKILEMATIDGARSLGMDHEIGSIETGKRADLILLDLRHPQTTPHHHLAATIVFQAYGNEVDTVLIDGNVVMENRRLSFLPPERELAFLEEAQSRATAILQRANMVANPAWRSL
modifications: Pseudomonas
B3: A220S: mutated TriA variant of SEQ ID NO: 2 (protein)
chain: MQTLSIQHGTLVTMDQYRRVLGDSWVHVQDGRIVALGVHAESVPPPADRVIDARGKVVLPGFINAHTHVNQILLRGGPSHGRQLYDWLFNVLYPGQKAMRPEDVAVAVRLYCAEAVRSGITTINDNADSAIYPGNIEAAMAVYGEVGVRVVYARMFFDRMDGRIQGYVDALKARSPQVELCSIMEETAVAKDRITALSDQYHGTAGGRISVWPAPAITPSVTVEGMRWAQAFARDRAVMWTLHMAESDHDERLHWMSPAEYMECYGLLDERLQVAHCVYFDRKDVRLLHRHNVKVASQVVSNAYLGSGVAPVPEMVERGMAVGIGTDDGNCNDSVNMIGDMKFMAHIHRAVHRDADVLTPEKILEMATIDGARSLGMDHEIGSIETGKRADLILLDLRHPQTTPHHHLAATIVFQAYGNEVDTVLIDGNVVMENRRLSFLPPERELAFLEEAQSRATAILQRANMVANPAWRSL
modifications: Pseudomonas
B4: P219GH249N: mutated TriA variant of SEQ ID NO: 2 (protein)
chain: MQTLSIQHGTLVTMDQYRRVLGDSWVHVQDGRIVALGVHAESVPPPADRVIDARGKVVLPGFINAHTHVNQILLRGGPSHGRQLYDWLFNVLYPGQKAMRPEDVAVAVRLYCAEAVRSGITTINDNADSAIYPGNIEAAMAVYGEVGVRVVYARMFFDRMDGRIQGYVDALKARSPQVELCSIMEETAVAKDRITALSDQYHGTAGGRISVWPAPAITGAVTVEGMRWAQAFARDRAVMWTLHMAESDNDERLHWMSPAEYMECYGLLDERLQVAHCVYFDRKDVRLLHRHNVKVASQVVSNAYLGSGVAPVPEMVERGMAVGIGTDDGNCNDSVNMIGDMKFMAHIHRAVHRDADVLTPEKILEMATIDGARSLGMDHEIGSIETGKRADLILLDLRHPQTTPHHHLAATIVFQAYGNEVDTVLIDGNVVMENRRLSFLPPERELAFLEEAQSRATAILQRANMVANPAWRSL
modifications: Pseudomonas
B5: I217T: mutated TriA variant of SEQ ID NO: 2 (protein)
chain: MQTLSIQHGTLVTMDQYRRVLGDSWVHVQDGRIVALGVHAESVPPPADRVIDARGKVVLPGFINAHTHVNQILLRGGPSHGRQLYDWLFNVLYPGQKAMRPEDVAVAVRLYCAEAVRSGITTINDNADSAIYPGNIEAAMAVYGEVGVRVVYARMFFDRMDGRIQGYVDALKARSPQVELCSIMEETAVAKDRITALSDQYHGTAGGRISVWPAPATTPAVTVEGMRWAQAFARDRAVMWTLHMAESDHDERLHWMSPAEYMECYGLLDERLQVAHCVYFDRKDVRLLHRHNVKVASQVVSNAYLGSGVAPVPEMVERGMAVGIGTDDGNCNDSVNMIGDMKFMAHIHRAVHRDADVLTPEKILEMATIDGARSLGMDHEIGSIETGKRADLILLDLRHPQTTPHHHLAATIVFQAYGNEVDTVLIDGNVVMENRRLSFLPPERELAFLEEAQSRATAILQRANMVANPAWRSL
modifications: Pseudomonas
B6: I217VP219GH249N: mutated TriA variant of SEQ ID NO: 2 (protein)
chain: MQTLSIQHGTLVTMDQYRRVLGDSWVHVQDGRIVALGVHAESVPPPADRVIDARGKVVLPGFINAHTHVNQILLRGGPSHGRQLYDWLFNVLYPGQKAMRPEDVAVAVRLYCAEAVRSGITTINDNADSAIYPGNIEAAMAVYGEVGVRVVYARMFFDRMDGRIQGYVDALKARSPQVELCSIMEETAVAKDRITALSDQYHGTAGGRISVWPAPAVTGAVTVEGMRWAQAFARDRAVMWTLHMAESDNDERLHWMSPAEYMECYGLLDERLQVAHCVYFDRKDVRLLHRHNVKVASQVVSNAYLGSGVAPVPEMVERGMAVGIGTDDGNCNDSVNMIGDMKFMAHIHRAVHRDADVLTPEKILEMATIDGARSLGMDHEIGSIETGKRADLILLDLRHPQTTPHHHLAATIVFQAYGNEVDTVLIDGNVVMENRRLSFLPPERELAFLEEAQSRATAILQRANMVANPAWRSL
modifications: Pseudomonas
B7: A220T: mutated TriA variant of SEQ ID NO: 2 (protein)
chain: MQTLSIQHGTLVTMDQYRRVLGDSWVHVQDGRIVALGVHAESVPPPADRVIDARGKVVLPGFINAHTHVNQILLRGGPSHGRQLYDWLFNVLYPGQKAMRPEDVAVAVRLYCAEAVRSGITTINDNADSAIYPGNIEAAMAVYGEVGVRVVYARMFFDRMDGRIQGYVDALKARSPQVELCSIMEETAVAKDRITALSDQYHGTAGGRISVWPAPAITPTVTVEGMRWAQAFARDRAVMWTLHMAESDHDERLHWMSPAEYMECYGLLDERLQVAHCVYFDRKDVRLLHRHNVKVASQVVSNAYLGSGVAPVPEMVERGMAVGIGTDDGNCNDSVNMIGDMKFMAHIHRAVHRDADVLTPEKILEMATIDGARSLGMDHEIGSIETGKRADLILLDLRHPQTTPHHHLAATIVFQAYGNEVDTVLIDGNVVMENRRLSFLPPERELAFLEEAQSRATAILQRANMVANPAWRSL
modifications: Pseudomonas

Type: biochemical
Details: pH 7.2
How it was run: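 TriA variants, N-His-tagged, were expressed in E. coli BL21(DE3) Gold with groEL/groES chaperones and purified by Ni-IDA affinity. Enzyme in 25 mM sodium phosphate pH 7.2 was incubated with azine substrates at 1 nM to 10 nM, 30° C. Products were identified by UPLC-HR-MS.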

Compared with B1, B2 is lower in “Degradation in % of 6-cyclopentyl-N4-(2,3,4,5,6-pentafluorophenyl)-1,3,5-triazine-2,4-diamine” value: 4% for the first, 3% for the second.

Compared with B3, B4 is lower in “Degradation in % of 6-cyclopentyl-N4-(2,3,4,5,6-pentafluorophenyl)-1,3,5-triazine-2,4-diamine” value: 3% for the first, 0% for the second.

First: B5
Second: B6
The “Degradation in % of 6-cyclopentyl-N4-(2,3,4,5,6-pentafluorophenyl)-1,3,5-triazine-2,4-diamine” value of the first is higher: 3% for the first, 0% for the second.

In the case of B7, the “Degradation in % of 6-cyclopentyl-N4-(2,3,4,5,6-pentafluorophenyl)-1,3,5-triazine-2,4-diamine” value is reported as 1%.

B1 and B2 are the same in “Degradation in % of Melamine” value: 100% for the first, 100% for the second.

First: B3
Second: B4
The “Degradation in % of Melamine” value of the first is lower: 0% for the first, 2% for the second.

Compared with B5, B6 is lower in “Degradation in % of Melamine” value: 100% for the first, 8% for the second.

For B7, the “Degradation in % of Melamine” value was 6%.

Source: patent US11499162B2, “Plants having increased tolerance to herbicides” (BASF SE, priority 2016, dated 2022)
